The record followed here is patent US20220324922A1.

The experiment deals with GluN2B-containing NMDA receptor (GluN1a/GluN2B). The experiment is described as follows: cell-based or functional assay.

For the molecule ADTDYADGSEDKVVE [Con-G-like APP (cAPP)], the inhibition of receptor currents, two-electrode voltage clamp, Xenopus oocytes was under 30%.
